B1: HDV Ribozyme (parent)
chain: GGCCGGCAUGGUCCCAGCCUCCUCGCUGGCGCCGGCUGGGCAACAUUCCGAGGGGACCGUCCCCUCGGUAAUGGCGAAUGGGACCCA

This data set covers variants of B1. Description: self-cleavage, relative activity (ratio to wild type); higher = more cleavage; co-transcriptional.
On to G52C G76C, for which the self-cleavage is 1.03.

In the case of G53U U69A, the self-cleavage came out at 0.969.

On to G53U U69C, for which the self-cleavage was 0.931.

Consider G53U U69G, for which the self-cleavage was determined as 0.964.

As for G53A C63G, the self-cleavage worked out at 1.01.

As to G53A C63A, the self-cleavage came to 0.819.

In the case of G52A A70U, the self-cleavage turned out to be 0.858.

As to G52A A70C, the self-cleavage was determined as 0.791.

For G53A U65C, the self-cleavage is 0.815.

As to G53A C85U, the self-cleavage was determined as 0.872.

Turning to G52C A70C, the self-cleavage turned out to be 0.85.

For G52C U72G, the self-cleavage turned out to be 0.723.

Regarding G52C U72A, the self-cleavage was found to be 0.872.

For G53U G59C, the self-cleavage is 1.23.

Regarding G53U G59A, the self-cleavage was found to be 1.14.

G53U G59U: the self-cleavage was 0.899.

A51U C86A: the self-cleavage worked out at 0.848.

Take A51U C86G: the self-cleavage worked out at 1.21.

As to A51U C86U, the self-cleavage was 0.831.

Consider G53U U72G, for which the self-cleavage came out at 0.554.

Turning to G53U U72A, the self-cleavage was determined as 0.798.

With G53U U72C, the self-cleavage worked out at 0.563.

For G53U G54U, the self-cleavage amounted to 0.831.

Take G53U G54A: the self-cleavage worked out at 0.758.

G53U G54C: the self-cleavage amounted to 0.845.

Regarding G52U G55A, the self-cleavage was 0.731.

Consider G52U G55U, for which the self-cleavage is 0.822.

Consider G53C C75U, for which the self-cleavage amounted to 0.131.

For the variant G52C C62G, the self-cleavage amounted to 0.383.

Consider G53C U69A, for which the self-cleavage is 0.77.

For G52C U69A, the self-cleavage worked out at 1.21.

As to G52C U69G, the self-cleavage came out at 0.914.

As to G53A C62U, the self-cleavage was found to be 0.926.

For the variant G53A C64A, the self-cleavage is 0.639.

In the case of G53A C64U, the self-cleavage is 0.968.

For G52A C63U, the self-cleavage came to 0.969.

For G52A C63G, the self-cleavage came out at 0.415.

As for G52C G68U, the self-cleavage was found to be 0.332.

Regarding G52C A71G, the self-cleavage stood at 0.884.

Take G52C A71C: the self-cleavage was determined as 0.332.

Take G52C A71U: the self-cleavage came out at 0.831.

As for A51U G80U, the self-cleavage stood at 0.257.

With A51U G81U, the self-cleavage is 0.282.

With G53U C75G, the self-cleavage is 0.214.

Consider G53A A70G, for which the self-cleavage stood at 1.07.

As for G53U G73A, the self-cleavage is 0.831.

As to G53U G73C, the self-cleavage came to 0.428.

As for G53U G73U, the self-cleavage amounted to 0.472.

On to A51U G54C, for which the self-cleavage worked out at 0.982.

On to G52A A77C, for which the self-cleavage was determined as 0.309.

For G52A A77G, the self-cleavage is 0.89.

Take G52A C75A: the self-cleavage is 0.166.

Take G52A C75G: the self-cleavage is 0.227.

Regarding G52A C75U, the self-cleavage came to 0.147.

As to G53U C62U, the self-cleavage turned out to be 1.06.

For the variant G53U C62G, the self-cleavage worked out at 0.793.

Consider G53U C61A, for which the self-cleavage was found to be 1.02.

Take G53A A77C: the self-cleavage is 0.251.

With G53A A77G, the self-cleavage came to 0.916.

As to G53A G81U, the self-cleavage was found to be 0.272.

As to G53A G81A, the self-cleavage stood at 0.456.

As to G52C G74C, the self-cleavage was found to be 0.17.

As for G52C G74A, the self-cleavage is 0.486.

With G53A U69A, the self-cleavage is 1.03.

Regarding G53A U69C, the self-cleavage was found to be 1.11.

Take G53A U69G: the self-cleavage was 1.04.

Regarding G52U G68U, the self-cleavage was found to be 0.415.

Take G52U G68C: the self-cleavage was determined as 0.185.

Regarding G52C C63G, the self-cleavage stood at 0.892.

As to G52C U79C, the self-cleavage is 0.582.

Regarding G52C U79A, the self-cleavage amounted to 0.906.

For G53C G74C, the self-cleavage was 0.19.

In the case of G53C G74U, the self-cleavage came out at 0.379.

G53U U60C: the self-cleavage was found to be 0.923.

G52C A77C: the self-cleavage was determined as 0.403.

For the variant G52C A77G, the self-cleavage came to 0.643.

Turning to G52C A77U, the self-cleavage worked out at 0.731.

Consider A51U G68U, for which the self-cleavage turned out to be 0.9.

As to A51U G68A, the self-cleavage worked out at 0.787.

On to A51U G68C, for which the self-cleavage was 0.554.

As to G53C U60A, the self-cleavage is 1.15.

As for G53C U65G, the self-cleavage is 0.688.

G52C G82U: the self-cleavage turned out to be 0.283.

On to G52C G82C, for which the self-cleavage was 0.141.

As to G52U G59C, the self-cleavage was 0.765.

For the variant G52U C84A, the self-cleavage is 0.904.

On to G52U C84G, for which the self-cleavage was 0.573.

G53U C63U: the self-cleavage came to 0.895.

In the case of G53U C63G, the self-cleavage was found to be 1.02.

Turning to G53U C64G, the self-cleavage was found to be 0.62.

In the case of G52A U79C, the self-cleavage is 0.514.

For the variant G53A A78G, the self-cleavage stood at 0.618.

Consider G53A A78U, for which the self-cleavage came to 0.277.

On to A51U G82C, for which the self-cleavage came to 0.282.

Turning to G52U U79A, the self-cleavage was 0.759.

As for G52C C57U, the self-cleavage turned out to be 0.991.

Consider G52C C57A, for which the self-cleavage is 0.817.

As for G52C C57G, the self-cleavage came to 0.866.

Take A51U U65C: the self-cleavage was determined as 1.04.

A51U U65A: the self-cleavage was 0.966.

Turning to G53C A83C, the self-cleavage came out at 0.525.

Consider G53A C57A, for which the self-cleavage worked out at 0.866.

Turning to G53A C57U, the self-cleavage was determined as 1.06.

As to G52A C64U, the self-cleavage was determined as 0.992.

As for G53C G81A, the self-cleavage stood at 0.369.

Turning to G53C G81U, the self-cleavage stood at 0.293.

For G52U C62U, the self-cleavage stood at 0.754.

G53C G82C: the self-cleavage was found to be 0.0923.

As to G53C G82U, the self-cleavage is 0.358.

G53C G82A: the self-cleavage was found to be 0.383.

For G53A G55U, the self-cleavage turned out to be 1.17.

With G53U U79A, the self-cleavage was determined as 0.509.

On to G53U U79C, for which the self-cleavage stood at 0.535.

Consider G53U U79G, for which the self-cleavage worked out at 0.405.

Consider G52U C75A, for which the self-cleavage worked out at 0.148.

Regarding G52A U65G, the self-cleavage was 0.986.

As for G52A U65C, the self-cleavage amounted to 0.954.

For the variant G52C C58U, the self-cleavage came to 1.24.

As to G52U G67A, the self-cleavage stood at 0.265.

In the case of G52U C58U, the self-cleavage was determined as 0.898.

Take G52U C86A: the self-cleavage is 0.926.

As for G52U C86U, the self-cleavage turned out to be 1.02.

Take G53A A71U: the self-cleavage stood at 0.904.

As for G53C A77C, the self-cleavage stood at 0.443.

G53C C63A: the self-cleavage amounted to 1.06.

In the case of G53C C63G, the self-cleavage came to 0.973.

Consider G52U C61U, for which the self-cleavage came to 0.936.

As to G52U C61A, the self-cleavage was 1.02.

Regarding G52A A71U, the self-cleavage came out at 0.923.

Regarding G52A A71G, the self-cleavage was 0.845.

In the case of G52C G73U, the self-cleavage amounted to 0.415.

As for G53U G76C, the self-cleavage is 1.11.

Consider G53U C66U, for which the self-cleavage was 1.15.

For the variant G53U C66G, the self-cleavage was found to be 0.821.

Consider G52C G80U, for which the self-cleavage is 0.299.

Turning to G52C G80A, the self-cleavage came to 0.475.

Turning to G52U G53C, the self-cleavage turned out to be 0.672.

For G52U G53U, the self-cleavage stood at 0.733.

For G53C U79G, the self-cleavage came to 0.443.

For G53C U79A, the self-cleavage was 0.538.

As to G52U A87U, the self-cleavage stood at 1.

G52U A87G: the self-cleavage came to 0.906.

With G52C G59C, the self-cleavage worked out at 0.987.

Consider G52C G59U, for which the self-cleavage turned out to be 0.962.

Consider G52C G59A, for which the self-cleavage was 1.02.

Regarding G52U C85U, the self-cleavage turned out to be 0.781.

For the variant G52U C85G, the self-cleavage was 0.791.

On to G52U U60C, for which the self-cleavage was 0.961.

As to G53A C86A, the self-cleavage came to 1.16.

Regarding G53A C86G, the self-cleavage was determined as 1.1.

G52A C85U: the self-cleavage is 0.923.

Take G52A C85A: the self-cleavage worked out at 1.03.

As for G53A U72C, the self-cleavage turned out to be 0.731.

Turning to G53A U72G, the self-cleavage came out at 0.429.

In the case of G52C G54A, the self-cleavage worked out at 0.541.

For the variant A51U G53U, the self-cleavage was 1.11.

With A51U G53C, the self-cleavage was found to be 0.776.

With A51U G55U, the self-cleavage was 0.989.

Take G53U C86U: the self-cleavage worked out at 1.14.

Consider G53C G55U, for which the self-cleavage was 0.987.

In the case of G53C G55A, the self-cleavage is 0.898.

Take G52C C86G: the self-cleavage stood at 0.997.

For the variant G52A U72G, the self-cleavage came out at 0.749.

For G52A U72A, the self-cleavage was 0.423.

G52A U72C: the self-cleavage was 0.591.

For G53A C61U, the self-cleavage amounted to 0.99.

Take G53A C61A: the self-cleavage turned out to be 0.987.

Values taken from the RNAGym collection of RNA variant scans (doi:10.7554/elife.80360).
